Source: article PMC4337239, “Polyol specificity of recombinant Arabidopsis thaliana sorbitol dehydrogenase studied by enzyme kinetics and in silico modeling” (Frontiers in Plant Science, 2015)

Assays:
Assay in all cases: purified protein
[1] = substrate: OC[C@@H](O)[C@@H](O)[C@H](O)[C@@H](O)CO; type: biochemical, Arabidopsis thaliana; conditions: 1.36 mM NAD+, 100 mM Tris-HCl pH 9, 25 °C, Michaelis-Menten fit
[2] = substrate: OC[C@@H](O)[C@H](O)[C@@H](O)CO; conditions: 1.36 mM NAD+, 100 mM Tris-HCl pH 9, 25 °C, fit with substrate inhibition
[3] = substrate: OC[C@@H](O)[C@@H](O)[C@@H](O)CO; conditions: 1.36 mM NAD+, 100 mM Tris-HCl pH 9, 25 °C, Michaelis-Menten fit

B1: recombinant AtSDH (Arabidopsis thaliana) (protein)
chain: MGKGGMSQGEGSKVEEENMAAWLVGINTLKIQPFLLPSVGPHDVRVRMKAVGICGSDVHYLKTMRCADFVVKEPMVIGHECAGIIEEVGEEVKHLVVGDRVALEPGISCWRCNLCREGRYNLCPEMKFFATPPVHGSLANQVVHPADLCFKLPENVSLEEGAMCEPLSVGVHACRRAEVGPETNVLVMGAGPIGLVTMLAARAFSVPRIVIVDVDENRLAVAKQLGADEIVQVTTNLEDVGSEVEQIQKAMGSNIDVTFDCAGFNKTMSTALAATRCGGKVCLVGMGHGIMTVPLTPAAAREVDVVGVFRYKNTWPLCLEFLTSGKIDVKPLITHRFGFSQKEVEDAFETSARGSNAIKVMFNL
notes: full length 364 residues; N-terminal 6xHis tag cut off by TEV protease; pEXP5-NT/TOPO, cell-free in vitro expression (Expressway); oligomeric state not determined
- Km [1]: 960 ± 70 µM
- kcat [1]: 2.13 ± 0.03 s⁻¹
- kcat/Km [1]: 2230 ± 170 M⁻¹ s⁻¹
- Km [2]: 270 ± 40 µM
- kcat [2]: 2.12 s⁻¹
- kcat/Km [2]: 7740 M⁻¹ s⁻¹
- Km [3]: 1050 ± 100 µM
- kcat [3]: 1.83 s⁻¹
- kcat/Km [3]: 1740 M⁻¹ s⁻¹
